Key:
Test in all cases: fluorescence polarisation; FITC-labelled peptide fixed at 4 nM, arrestin titrated (0-50 μM; 0-3.20 μM for C-tail_6P); 20 mM HEPES pH 7.4, 100 mM NaCl, 0.01% DDM; room temperature, 30 min; One Site–Total fit; triplicate
[1] = molecular target: NTSR1 C-tail peptide phosphorylated at Ser401/Ser403/Ser404 (human)
[2] = molecular target: NTSR1 C-tail peptide phosphorylated at Thr407/Ser409/Ser410 (human)
[3] = molecular target: NTSR1 C-tail peptide with hexa-phosphorylation at Ser401/Ser403/Ser404 and Thr407/Ser409/Ser410 (human)

## human βArr1 truncated at residue 382 (constitutively active variant) (from UniProt P49407 1-382) (domain or fragment)
[1]
  Kd: 5.11 µM
[2]
  Kd: 3.77 µM
[3]
  Kd: 35 nM

Source: article PMC11958688
